These results are taken from US20170165337A1 (IMMATICS BIOTECHNOLOGIES, published 2017).

The target in the assay is T1, HLA-A*02:01 (human).
T1 construct: MHC class I monomer of the UV-ligand exchange assay; also called peptide-receptive MHC molecules; MHC class I
Kind of assay: UV peptide-exchange ELISA. The text has this:
Candidate peptides for T cell based therapies according to the present invention were further tested for their MHC binding capacity (affinity). The individual peptide-MHC complexes were produced by UV-ligand exchange, where a UV-sensitive peptide is cleaved upon UV-irradiation, and exchanged with the peptide of interest as analyzed. Only peptide candidates that can effectively bind and stabilize the peptide-receptive MHC molecules prevent dissociation of the MHC complexes. To determine the yield of the exchange reaction, an ELISA was performed based on the detection of the light chain (β2m) of stabilized MHC complexes. The assay was performed as generally described in Rodenko et al. (Rodenko et al., 2006).
96 well MAXISorp plates (NUNC) were coated over night with 2 ug/ml streptavidin in PBS at room temperature, washed 4× and blocked forl h at 37° C. in 2% BSA containing blocking buffer. Refolded HLA-A*02:01/MLA-001 monomers served as standards, covering the range of 15-500 ng/ml. Peptide-MHC monomers of the UV-exchange reaction were diluted 100 fold in blocking buffer. Samples were incubated for 1 h at 37° C., washed four times, incubated with 2 ug/ml HRP conjugated anti-β2m for 1 h at 37° C., washed again and detected with TMB solution that is stopped with […]. Absorption was measured at 450 nm. Candidate peptides that show a high exchange yield (preferably higher than 50%, most preferred higher than 75%) are generally preferred for a generation and production of antibodies or fragments thereof, and/or T cell receptors or fragments thereof, as they show sufficient avidity to the MHC molecules and prevent dissociation of the MHC complexes.
Background: ELISA stands for enzyme-linked immunosorbent assay.

A value given as a limit tells only on which side of the number the result lay.

Molecule ALPEILFAKV registered a peptide exchange yield of 50 to 75%.

In the case of FLGGLSPGV, the peptide exchange yield was in the range of 50 to 75%.

GIIDINVRL yielded a peptide exchange yield of 20 to 50%.

For VMQDIVYKL, the peptide exchange yield is 50 to 75%.

The molecule RLDYITAEI displayed a peptide exchange yield of 50 to 75%.

ALVDPGPDFVV returned a peptide exchange yield of 50 to 75%.

In turn, KLLVQDFFL came in with a peptide exchange yield of 50 to 75%.

ALWVSQPPEI: the peptide exchange yield was 50 to 75%.

Turning to YLFEEAISM, the peptide exchange yield lay in the range of 50 to 75%.

Regarding NLLDPGSSYLL, the peptide exchange yield fell in the range of 50 to 75%.

As to RLLDEQFAVL, the peptide exchange yield was in the range of 50 to 75%.

Regarding NLWSVDGEVTV, the peptide exchange yield fell in the range of 50 to 75%.

Take GLDDAEYAL: the peptide exchange yield was 20 to 50%.

Molecule FLYIRQLAI displayed a peptide exchange yield of 50 to 75%.

For the molecule KLKDRLPSI, the peptide exchange yield was 20 to 50%.

The molecule ILGDILLKV had a peptide exchange yield of 50 to 75%.

Consider LLYDNVPGA, for which the peptide exchange yield lay in the range of 50 to 75%.

As for ALWELSLKI, the peptide exchange yield is 50 to 75%.

ILARDILEI yielded a peptide exchange yield of 50 to 75%.

Molecule FLQDSKVIFV yielded a peptide exchange yield of 50 to 75%.

Molecule ILLGIQELL displayed a peptide exchange yield of 50 to 75%.

Molecule AMNISVPQV came in with a peptide exchange yield of 50 to 75%.

GLDDLLLFL: the peptide exchange yield is 50 to 75%.

ALYLTEVFL displayed a peptide exchange yield of no less than 75%.

In turn, FLLNLQNCHL came in with a peptide exchange yield of no less than 75%.

The molecule ALDEPPYLTV yielded a peptide exchange yield of 50 to 75%.

As to RLQELTEKL, the peptide exchange yield is 50 to 75%.

Molecule GLQENLDVVV registered a peptide exchange yield of no less than 75%.

LIDVKPLGV gave a peptide exchange yield of 50 to 75%.

ALWDPVIEL: the peptide exchange yield lay in the range of 50 to 75%.

Turning to ALWAGLLTL, the peptide exchange yield is 50 to 75%.

For FLAEASVMTQL, the peptide exchange yield fell in the range of 50 to 75%.

ALHRPDVYL yielded a peptide exchange yield of 50 to 75%.

For AMEALVVEV, the peptide exchange yield fell in the range of 50 to 75%.

The molecule ILQAELPSL displayed a peptide exchange yield of 50 to 75%.

The molecule QLLPVSNVVSV returned a peptide exchange yield of 50 to 75%.

Consider LLVQEPDGLMV, for which the peptide exchange yield fell in the range of 50 to 75%.

Regarding ATYSGLESQSV, the peptide exchange yield fell in the range of 20 to 50%.

ILAGEMLSV gave a peptide exchange yield of 50 to 75%.

ALGEEWKGYVV gave a peptide exchange yield of 20 to 50%.

The molecule WLAGDVPAA gave a peptide exchange yield of 50 to 75%.

For KTVEPPISQV, the peptide exchange yield is 20 to 50%.

QLIPKLIFL showed a peptide exchange yield of 50 to 75%.

The molecule ALLNLLESA had a peptide exchange yield of 50 to 75%.

IIADLDTTIMFA yielded a peptide exchange yield of 50 to 75%.

GLVETELQL returned a peptide exchange yield of 50 to 75%.

In turn, KIMDYSLLLGV showed a peptide exchange yield of no less than 75%.

The molecule ILQALAVHL returned a peptide exchange yield of 50 to 75%.

For ILLKTEGINL, the peptide exchange yield fell in the range of 50 to 75%.

The molecule KLDETGVAL displayed a peptide exchange yield of 20 to 50%.

In the case of ILPTLEKELFL, the peptide exchange yield lay in the range of 50 to 75%.

With ALLSSQLAL, the peptide exchange yield lay within 50 to 75%.

For ILQERELLPV, the peptide exchange yield was in the range of 50 to 75%.

Regarding GLLQINDKIAL, the peptide exchange yield is 50 to 75%.

As for FMHQIIDQV, the peptide exchange yield was no less than 75%.

On to GLSQANFTL, for which the peptide exchange yield was 50 to 75%.

ALVSTIIMV registered a peptide exchange yield of 10 to 20%.

On to AMAGDVVYA, for which the peptide exchange yield lay within 50 to 75%.

The molecule LLPTGVFQV gave a peptide exchange yield of 50 to 75%.

The molecule HMQDVRVLL gave a peptide exchange yield of 50 to 75%.

Regarding GLLESGRHYL, the peptide exchange yield lay within 50 to 75%.
